According to patent CN110606891A (L&L BIOPHARMA CO LTD, dated 2019):
Where a chain is given by its changes, count along the chain named. In names and notes the source's numbering stands. Values belong to the binder of their own block, whether it stands above or below them.

Legend:
[1] = target: T1, 人CLDN18.2 (hCLDN18.2), claudin-18 isoform 2 [Homo sapiens], NP_001002026.1 (human); experiment: cell ELISA, hybridoma supernatant on hCLDN18.2+ cells
T1 construct: the whole gene was transfected; also called 人CLDN18.2+ 细胞; hCLDN18.2+ cell

[2] = target: T2, 人CLDN18.1 (hCLDN18.1), claudin-18 isoform 1 precursor [Homo sapiens], NP_057453.1 (human, UniProt P56856 1-261); experiment: cell ELISA, hybridoma supernatant on hCLDN18.1+ cells
T2 construct: No signal peptide limits stated for this entry; also called 人CLDN18.1+ 细胞; hCLDN18.1+ cell
T2 sequence: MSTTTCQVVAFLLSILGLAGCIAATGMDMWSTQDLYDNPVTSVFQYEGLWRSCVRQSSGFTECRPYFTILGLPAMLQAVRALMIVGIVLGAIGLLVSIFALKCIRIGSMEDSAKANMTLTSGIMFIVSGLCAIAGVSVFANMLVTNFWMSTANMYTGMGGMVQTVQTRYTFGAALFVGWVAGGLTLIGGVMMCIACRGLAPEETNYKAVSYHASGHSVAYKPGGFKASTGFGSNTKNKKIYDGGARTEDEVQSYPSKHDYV

[3] = target: T1, 人CLDN18.2 (hCLDN18.2), claudin-18 …; experiment: cell-based or functional assay
[4] = target: T3, 鼠CLDN18.2 (mCLDN18.2), claudin-18 isoform A2.1 [Mus musculus], NP_001181850.1 (mouse, UniProt P56857 10-264); experiment: cell ELISA on mCLDN18.2+ cells (Table 23)
T3 construct: also called 鼠CLDN18.2+细胞; mCLDN18.2+ cell
T3 chain: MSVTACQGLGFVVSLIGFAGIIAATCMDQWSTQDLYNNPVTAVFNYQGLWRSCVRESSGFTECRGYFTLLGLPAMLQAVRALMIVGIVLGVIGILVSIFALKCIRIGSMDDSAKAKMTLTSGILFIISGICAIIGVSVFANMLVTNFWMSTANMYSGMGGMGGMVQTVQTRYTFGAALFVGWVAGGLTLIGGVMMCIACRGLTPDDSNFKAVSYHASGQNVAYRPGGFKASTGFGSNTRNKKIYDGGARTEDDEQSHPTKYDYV

[5] = target: T4, 鼠CLDN18.1 (mCLDN18.1), claudin-18 isoform A1.1 precursor, NP_062789.1 (mouse, UniProt P56857 1-264); experiment: cell ELISA on mCLDN18.1+ cells
T4 construct: also called 鼠CLDN18.1+ 细胞; mCLDN18.1+ cell
T4 sequence: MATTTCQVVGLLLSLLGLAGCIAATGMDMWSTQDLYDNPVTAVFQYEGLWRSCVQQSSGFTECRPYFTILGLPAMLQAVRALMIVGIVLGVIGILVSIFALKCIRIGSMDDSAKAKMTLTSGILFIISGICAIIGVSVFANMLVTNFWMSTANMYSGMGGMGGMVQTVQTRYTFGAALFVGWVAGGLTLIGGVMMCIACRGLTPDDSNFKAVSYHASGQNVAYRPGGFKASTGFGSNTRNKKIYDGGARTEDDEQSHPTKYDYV

[6] = target: T2, 人CLDN18.1 (hCLDN18.1), claudin-18 …; experiment: cell ELISA on hCLDN18.1+ cells
[7] = target: T1, 人CLDN18.2 (hCLDN18.2), claudin-18 …; experiment: cell ELISA on hCLDN18.2+ cells (Table 16a)
[8] = target: T3, 鼠CLDN18.2 (mCLDN18.2), claudin-18 …; experiment: cell ELISA on mCLDN18.2+ cells
[9] = target: T3, 鼠CLDN18.2 (mCLDN18.2), claudin-18 …; experiment: cell ELISA on mCLDN18.2+ cells, against Ref

B3: Ab66 (L21, H61, hIgG1 Fc S239D/A330L/I332E) (antibody)
heavy: QVQLVQSGAEVKKPGSSVKVSCKASGYAFSNYLIEWVRQAPGQGLEWMGLINPGSGGTNYNEKFKGKVTITADKSTSTAYMELSSLRSEDTAVYYCARVYYGNTFAYWGQGTLVTVSSASTKGPSVFPLAPSSKSTSGGTAALGCLVKDYFPEPVTVSWNSGALTSGVHTFPAVLQSSGLYSLSSVVTVPSSSLGTQTYICNVNHKPSNTKVDKKVEPKSCDKTHTCPPCPAPELLGGPDVFLFPPKPKDTLMISRTPEVTCVVVDVSHEDPEVKFNWYVDGVEVHNAKTKPREEQYNSTYRVVSVLTVLHQDWLNGKEYKCKVSNKALPLPEEKTISKAKGQPREPQVYTLPPSRDELTKNQVSLTCLVKGFYPSDIAVEWESNGQPENNYKTTPPVLDSDGSFFLYSKLTVDKSRWQQGNVFSCSVMHEALHNHYTQKSLSLSPGK
light: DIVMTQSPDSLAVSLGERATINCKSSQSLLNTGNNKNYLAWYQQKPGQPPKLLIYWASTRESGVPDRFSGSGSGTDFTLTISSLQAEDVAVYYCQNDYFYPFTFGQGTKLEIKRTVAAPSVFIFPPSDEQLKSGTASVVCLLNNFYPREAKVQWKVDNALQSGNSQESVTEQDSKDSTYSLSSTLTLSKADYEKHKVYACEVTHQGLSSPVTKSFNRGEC
CDC EC50 (人血清补体对hCLDN18.2+细胞, LDH) [3]: 0.927 µg/mL

B4: Ab60 (L12, H51, hIgG1 Fc S239D/A330L/I332E) (antibody)
heavy: B3 heavy with R38K, M48I, V68A, T104S
light: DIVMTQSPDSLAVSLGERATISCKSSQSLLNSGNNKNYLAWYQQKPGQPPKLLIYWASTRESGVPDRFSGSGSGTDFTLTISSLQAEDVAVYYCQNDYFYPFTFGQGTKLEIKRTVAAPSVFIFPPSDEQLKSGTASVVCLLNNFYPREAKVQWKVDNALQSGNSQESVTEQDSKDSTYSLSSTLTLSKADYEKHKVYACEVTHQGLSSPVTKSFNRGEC
ADCC EC50 (PBMC对hCLDN18.2+细胞, LDH) [3]: 0.431 µg/mL | CDC EC50 (人血清补体对hCLDN18.2+细胞, LDH) [3]: 0.973 µg/mL

B5: Ab36抗体 (antibody, human IgG1, kappa, V domains shown)
VH: QVQLVQSGAEVKKPGSSVKVSCKASGYAFSNYLIEWVKQAPGQGLEWIGLINPGSGGTNYNEKFKGKATITADKSTSTAYMELSSLRSEDTAVYYCARVYYGNTFAYWGQGTLVTVSS
VL: DIVMTQSPDSLAVSLGERATISCKSSQSLLNTGNNKNYLAWYQQKPGQPPKLLIYWASTRESGVPDRFSGSGSGTDFTLTISSLQAEDVAVYYCQNDYFYPFTFGQGTKLEIKR
notes: Ab6 with NS->NT in light CDR1 and heavy CDR3; hIgG1 / kappa
EC50 [4]: 0.518 nM | Emax [4]: 2.18 | binding result [5]: no binding | CDC EC50 (人血清补体对hCLDN18.2+细胞, LDH) [3]: 1.75 µg/mL

B6: Ab51抗体 (antibody, human IgG1, kappa, V domains shown)
VH: B5 VH with K38R, I48M, K67R, A68V, K74E
VL: B5 VL with S22N
notes: hIgG1 (DEL) / kappa; also called L21/H64 DEL
EC50 [4]: 0.474 nM | Emax [4]: 1.91 | binding result [5]: no binding | CDC EC50 (人血清补体对hCLDN18.2+细胞, LDH) [3]: 2.12 µg/mL

B8: Ab22 (轻链CDR1 NS-> TS, 重链 CDR3 NS-> NT) (antibody, V domains shown)
VH: EVMLVESGGGLVKPGGSLKLSCAASGFTFSSYTMSWVRQTPEKRLEWVATIIGGYGNTYYADSVKGRFTISRDSAKNTLYLQMISLRSEDTALYYCTRLGQTQRNAMDYWGQGTSVTVSS
VL: DILMTQSPSSLSVSAGEKVTMSCKSSQSLLNSGNQKNYLAWYQQKPGQPPKLLIYGASTRESGVPDTFTGSGSGTDFTLTISSVQAEDLAVYYCQNDYYYPFTFGAGTKLEL
EC50 [7]: 1.37 nM

B10: anti-hCLDN18.2抗体mab5b (重组表达) (antibody, human IgG1, kappa, V domains shown)
VH: QVQLQQSGAELIGPGTSVKVSCKASGYAFSNYLIEWVKQRPEQGLEWIGLINPGSGGTNYNEKFKGKATLTADKSSSTAYMQLSSLTSDDSAVYFCARVYYGNSFAYWGQGTLVTVSA
VL: DIVMTQSPSSLTVTAGEKVTMSCKSSQSLLNSGNQKNYLTWYQQKPGQPPKLLIYWASTRESGVPDRFTGSGSGTHFTLTISSVQAEDLAVYYCQNDYFYPFTFGSGTKLEKKR
notes: also called 鼠源抗体mab5b
EC50 [4]: 0.375 nM | Emax [4]: 2.17 | EC50 [8]: 0.182 nM | 结合活性 (EC50) 比Ref好的倍数 [9]: > 4 倍

Continued, values first:

结合活性 (ELISA) [1]: 1.62 | 结合活性 (ELISA) [2]: 1.19
B1: mab1 (初始杂交瘤克隆 F2A4, 上清) (antibody, V domains shown)
VH: EVQLLESGGGLVQPGGSLRLSCAASGFTFSSYGMGWVRQAPGKGLEWVAAITRDSSTNYGAAVKGRATISRDNSKNTLYLQMNSLRAEDTAVYYCAKDASNGYCWYTGRGSYSCGAHHIDAWGQGTLVTVSS
VL: SYELTQPPSVSVSPGQTARITCSGGYNGHYGWYQQKPGQAPVTVIYSNNQRPSGIPERFSGSSSGTTVTLTISGVQAEDEADYYCGGYDSSAGIFGGGTKLTVL

结合活性 (ELISA) [1]: 0.671 | 结合活性 (ELISA) [2]: 0.448
B2: mab3 (初始杂交瘤克隆 C6F9, 上清) (antibody, V domains shown)
VH: EVQLLESGGGLVQPGGSLRLSCAASGFTFRSYAMMWVRQAPGKGLEWVGEISSTGGSTYYGSAVKGRATISRDNSKNTLYLQMNSLRAEDTAVYYCAKSTYGATWKSADSIDAWGQGTLVTVSS
VL: B1 VL with T43L

EC50 [4]: 0.371 nM | Emax [4]: 2.27 | binding result [5]: no binding | binding result [6]: no binding
B7: 人源化Ab10抗体 (antibody, human IgG1, kappa, V domains shown)
VH: B5 VH with T104S
VL: B5 VL with T32S, N35Q, A40T
notes: Humanized, hIgG1 (356-358 DEL) / kappa; also called L14/H51

结合活性 (ELISA) [1]: 0.176 | 结合活性 (ELISA) [2]: 0.123
B9: mab2 (初始杂交瘤克隆 F6B1, 上清) (antibody, V domains shown)
VH: EVQLLESGGGLVQPGGSLRLSCAASGFTFSSYGMSWVRQAPGKGLEWVAGIGSSGSDTWYADSVKGRFTISRDNSKNTLYLQMNSLRAEDTAVYYCAKDATNGYCWYTGRGSYSCGAHHIDAWGQGTLVTVSS
VL: SYELTQPPSVSVSPGQTARITCSGGSGSYGYYGWYQQKPGQAPVTVIYGTNKRPSGIPERFSGSSSGTTVTLTISGVQAEDEADYYCGGYDSSAGIFGGGTKLTVL
